# According to US20200150041:
# System: SDM-25
# MMP9 protease, sequence (chain, as listed by the source): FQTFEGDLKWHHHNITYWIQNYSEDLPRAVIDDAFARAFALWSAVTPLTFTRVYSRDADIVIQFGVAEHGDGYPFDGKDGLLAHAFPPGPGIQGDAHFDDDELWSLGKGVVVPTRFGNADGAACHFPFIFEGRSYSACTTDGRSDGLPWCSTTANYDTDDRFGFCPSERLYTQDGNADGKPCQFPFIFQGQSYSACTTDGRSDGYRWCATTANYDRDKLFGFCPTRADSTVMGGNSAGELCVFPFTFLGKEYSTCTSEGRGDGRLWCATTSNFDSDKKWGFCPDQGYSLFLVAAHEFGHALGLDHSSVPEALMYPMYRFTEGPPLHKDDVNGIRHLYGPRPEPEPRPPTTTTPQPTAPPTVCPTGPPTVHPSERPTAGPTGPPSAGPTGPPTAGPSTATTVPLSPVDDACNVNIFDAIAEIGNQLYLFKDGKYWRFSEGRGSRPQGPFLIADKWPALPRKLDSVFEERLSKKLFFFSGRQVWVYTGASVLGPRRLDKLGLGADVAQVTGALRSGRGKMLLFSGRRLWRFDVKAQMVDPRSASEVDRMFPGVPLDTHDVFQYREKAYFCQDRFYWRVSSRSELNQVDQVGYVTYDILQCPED
substance,measurement,value
MMP9 protease,fluorescence emission spectra (630 nm excitation) before and after protease treatment; FRET loss on cleavage,"After cleavage, Cy7 no longer quenches Cy5, resulting in an increase of the 670 nm Cy5 emission peak and a reduction of the Cy7 re-emission at 780 nm"
